From paper PMC10591846 (Cell reports, 2023) come the findings set out here.

Where no end group is shown, it is not given here. The star is where a group is joined. Biotin = O=C1N[C@H]2[C@H](CS[C@H]2CCCCC(=O)*)N1

What all share (assay): AlphaScreen or HTRF
Background: Bead proximity is the source of the signal in Alpha formats.

One experiment deals with T1, GST-Pirh2_(15-195) (human, UniProt Q96PM5 15-195).
T1 sequence: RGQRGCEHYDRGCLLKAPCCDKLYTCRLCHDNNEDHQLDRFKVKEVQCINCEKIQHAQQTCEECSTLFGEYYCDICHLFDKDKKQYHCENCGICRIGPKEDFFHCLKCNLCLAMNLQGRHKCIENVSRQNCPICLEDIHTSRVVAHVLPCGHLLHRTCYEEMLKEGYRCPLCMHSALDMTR

The target of experiment [1] is GST-KLHDC10 (full length) with Elongin B/C (human | , UniProt Q6PID8 1-442; Q15370 1-104; Q15369 1-112).
A further experiment addresses T2, GST-Pirh2_(1–195) (human, UniProt Q96PM5 1-195).
T2 sequence: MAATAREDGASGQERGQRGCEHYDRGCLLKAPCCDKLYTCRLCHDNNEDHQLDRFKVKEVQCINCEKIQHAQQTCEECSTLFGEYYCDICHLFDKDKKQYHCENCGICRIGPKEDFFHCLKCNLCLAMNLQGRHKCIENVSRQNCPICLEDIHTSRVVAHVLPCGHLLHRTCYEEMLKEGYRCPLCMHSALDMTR

Chain of GST-KLHDC10 (full length) with Elongin B/C (Q6PID8 whole entry, chain 1 of 2): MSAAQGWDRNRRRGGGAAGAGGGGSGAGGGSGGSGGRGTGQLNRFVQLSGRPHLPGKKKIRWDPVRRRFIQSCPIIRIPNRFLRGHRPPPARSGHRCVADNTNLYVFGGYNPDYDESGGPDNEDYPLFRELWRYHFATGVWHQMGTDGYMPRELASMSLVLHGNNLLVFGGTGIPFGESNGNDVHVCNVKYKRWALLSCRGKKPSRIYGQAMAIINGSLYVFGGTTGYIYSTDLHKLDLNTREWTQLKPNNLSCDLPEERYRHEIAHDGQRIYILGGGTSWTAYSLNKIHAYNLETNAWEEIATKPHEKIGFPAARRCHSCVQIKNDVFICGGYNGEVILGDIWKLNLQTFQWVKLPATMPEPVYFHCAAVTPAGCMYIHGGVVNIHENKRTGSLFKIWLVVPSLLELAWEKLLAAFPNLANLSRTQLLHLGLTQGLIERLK
Chain of GST-KLHDC10 (full length) with Elongin B/C (Q15369 whole entry, chain 3 of 2): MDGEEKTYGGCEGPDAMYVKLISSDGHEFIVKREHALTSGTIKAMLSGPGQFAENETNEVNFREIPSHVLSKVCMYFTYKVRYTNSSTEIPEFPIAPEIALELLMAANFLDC

DELYKAAAAA: the binding result with GST-Pirh2_(15-195) was “binds”.
The same measure, in the same setting: the result for ELYKAAAAA reads “binds”.
As a reminder, the IC50 is the point on the concentration scale where inhibition reaches its midpoint. For the molecule MDELYKAAAA, the IC50 with GST-Pirh2_(15-195) is around 2000 nM.
On the same count and under the same terms, the figure for MDELYKAAAAA is around 50 nM.
Turning to KAAAAA, the binding result in the experiment with GST-Pirh2_(15-195) is listed as “binds”.
On the same count and under the same terms, the result for YKAAAAA reads “binds”.
With Biotin-MDELYKAAAAAA [Biotin-MDELYKAAAAAA], the binding result in experiment [1] was “binds”.
With MDELYKAAAAAG, the IC50 with GST-Pirh2_(15-195) was around 2000 nM.
In turn, MDELYKGAAAAA returned a 50% inhibitory concentration (IC50) with GST-Pirh2_(15-195) of around 60 nM.
In the case of MDELYKAAALAA, the “fold reduction of binding against the Ala6 peptide” value in the experiment with GST-Pirh2_(15-195) amounted to 3 fold.
Same read-out and setting: the figure for MDELYKAAGAAA is 100 fold.
MDELYKAAAAAD gave an IC50 with GST-Pirh2_(15-195) of around 26000 nM.
Still for that read-out and setting: the figure for MDELYKLAAAAA is around 60 nM.
LYKAAAAA: the binding result with GST-Pirh2_(15-195) is “binds”.
The same measure, in the same setting: the result for MDELAAAAA reads “binds”.
As to MDELYKAAAAAA-NH2 [MDELYKAAAAAA-NH2], the “fold reduction of affinity against the Ala-tail peptide with free carboxyl” value with GST-Pirh2_(15-195) is around 2000 fold.
For MDELYKAAAAAA [MDELYKAAAAAA (Ala-tail peptide, non-biotinylated)], the IC50 in the experiment with GST-Pirh2_(15-195) is 50 to 120 nM; with GST-Pirh2_(1–195) it was 90 to 120 nM; in experiment [1] it was 5 to 10 nM.
